Measurements published in patent publication US20200317817A1 (XOMA US, published 2020).
Substitutions are numbered along the chain they refer to.

T1: rat PTH1R on UMR106 cells (rat, UniProt P25961 27-591)
T1 sequence (looked up): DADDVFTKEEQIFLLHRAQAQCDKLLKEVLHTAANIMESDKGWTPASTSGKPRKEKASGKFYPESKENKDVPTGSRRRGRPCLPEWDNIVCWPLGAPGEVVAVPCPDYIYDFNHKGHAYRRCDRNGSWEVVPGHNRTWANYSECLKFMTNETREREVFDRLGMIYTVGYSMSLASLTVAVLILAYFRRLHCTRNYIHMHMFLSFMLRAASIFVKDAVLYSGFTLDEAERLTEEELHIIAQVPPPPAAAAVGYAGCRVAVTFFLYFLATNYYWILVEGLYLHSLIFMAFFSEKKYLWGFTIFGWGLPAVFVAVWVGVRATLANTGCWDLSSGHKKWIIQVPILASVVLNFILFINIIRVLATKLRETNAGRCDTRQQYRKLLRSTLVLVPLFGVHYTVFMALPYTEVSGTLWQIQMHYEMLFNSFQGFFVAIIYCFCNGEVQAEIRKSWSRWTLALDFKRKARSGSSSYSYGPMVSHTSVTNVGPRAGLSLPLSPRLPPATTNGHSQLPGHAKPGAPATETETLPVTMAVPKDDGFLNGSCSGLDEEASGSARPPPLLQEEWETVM

T2: human PTH1R on Saos-2 cells (endogenous) (human, UniProt Q03431 27-593)
T2 sequence (looked up): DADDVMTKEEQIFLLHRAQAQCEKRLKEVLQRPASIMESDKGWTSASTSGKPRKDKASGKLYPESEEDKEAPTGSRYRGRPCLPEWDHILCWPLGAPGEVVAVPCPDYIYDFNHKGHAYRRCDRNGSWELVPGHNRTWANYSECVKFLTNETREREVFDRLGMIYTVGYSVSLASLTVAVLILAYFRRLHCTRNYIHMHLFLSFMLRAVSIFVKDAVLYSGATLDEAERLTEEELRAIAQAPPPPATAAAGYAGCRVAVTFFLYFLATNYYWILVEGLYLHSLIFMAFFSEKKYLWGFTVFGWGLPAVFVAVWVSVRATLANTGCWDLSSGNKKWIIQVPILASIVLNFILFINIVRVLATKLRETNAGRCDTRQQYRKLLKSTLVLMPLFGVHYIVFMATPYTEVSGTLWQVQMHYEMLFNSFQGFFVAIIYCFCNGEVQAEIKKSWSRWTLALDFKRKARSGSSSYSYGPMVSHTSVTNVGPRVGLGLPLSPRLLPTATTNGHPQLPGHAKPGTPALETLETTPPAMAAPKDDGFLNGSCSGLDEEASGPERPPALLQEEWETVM

T3: mouse PTH1R overexpressed on CHO cells (mouse, UniProt P41593 27-591)
T3 sequence (looked up): T1 sequence (looked up) with S58P, P497L, T518I, T520N, L523I, A528T

T4: human PTH1R overexpressed on CHO cells (human, UniProt Q03431 27-593)
T4 sequence (looked up): T2 sequence (looked up)

T5: recombinant N-terminal extracellular domain of the human PTH1R receptor (human, UniProt Q03431 27-188, limits assumed)
T5 construct: domain: N-terminal extracellular domain; Bought reagent; also called N-ECD PTH1R; PTH1R N-terminal ECD
T5 sequence (looked up): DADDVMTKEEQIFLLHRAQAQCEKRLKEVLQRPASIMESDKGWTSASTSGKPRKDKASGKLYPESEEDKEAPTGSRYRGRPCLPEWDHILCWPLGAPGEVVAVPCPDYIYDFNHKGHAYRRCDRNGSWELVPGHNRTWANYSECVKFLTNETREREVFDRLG

B1: XPA.85.331 (antibody, V domains shown)
VH: QMQLVQSGAEVKKPGSSVKVSCKASGGTFSSYAISWVRQAPGQGLEWMGGIIPIFGTANYAQKFQGRVTITADESTSTAYMELSSLRSEDTAVYYCARGYVVARLWGQGTLVTVSS
VL: DVVMTQSPLSLPVTPGEPASISCRSSQSLLHIDGFNYLQWYLQKPGQSPQLLVHLGSFRASGVPDRFSGSGSGTDFTLEISRVEAEDVGLYYCMQGLQTPPTFGPGTKVEIK
notes: Light-chain-shuffled variant of XPA.85.012
B2: XPA.85.288 (antibody, V domains shown)
VH: B1 VH
VL: DVVMTQTPLSLSVTPGQPASISCKSSQSLLHIDGKTYLYWYLQKSGQSPQLLIYEVSNRFSGVPDTFSGSGSGTDFTLKISRVEAEDVGVYYCMQSLHFPITFGQGTRLEIK
notes: also called Ab288
B3: XPA.85.342 (antibody, V domains shown)
VH: B1 VH
VL: ETTLTQSPTFMSASVGDRVTITCQASQDINNFLNWYQQKPGKAPKFLIYDASNLEKGVPSRFSGRGSGTEFTLTISSLQPEDIATYYCQQYRDFPLTFGQGTRLEIK
notes: as for B1
B4: XPA.85.346 (antibody, V domains shown)
VH: B1 VH
VL: B2 VL with V2I, S22T, Y41F, S45P, S48P, T66R, V90L, F99L
notes: as for B1
B5: XPA.85.345 (antibody, V domains shown)
VH: B1 VH
VL: B3 VL with T9A
notes: as for B1
B6: XPA.85.347 (antibody, V domains shown)
VH: B1 VH
VL: DIVMTQTPLSLSVTPGQPASISCKSSQSLFHDHGRTHLSWYLQKPGQPPQLLIFEASNRFSGVPDRFSGSGSGTDFTLKISRVEAEDVGVYYCMQGIHLPPAFGGGTKLEIK
notes: as for B1
B7: XPA.85.327 (antibody, V domains shown)
VH: B1 VH
VL: B2 VL with V2I, S22T, K35N, K44R, S45P, S48P, V56I, T66R
notes: Light-chain-shuffled variant of XPA.85.012; also called XPA.327
B8: XPA.85.326 (antibody, V domains shown)
VH: B1 VH
VL: B2 VL with V2I, K35L, S45P, S48P, N58H, P64S, T66K, K79T, F99L
notes: as for B1

Target: T1, rat PTH1R on UMR106 cells
Experiment: cell-based or functional assay

% inhibition of cAMP accumulation at 1 µM PTH(1-34), 267 nM IgG [%]	% inhibition of cAMP accumulation at 1 µM PTHrP(1-34), 267 nM IgG [%]	Binder
42	37	B1
73	45	B2
6	0	B3
40	31	B4

Target: T2, human PTH1R on Saos-2 cells (endogenous)
Experiment: cell-based or functional assay

% inhibition of cAMP accumulation at 1 µM PTH(1-34), 267 nM IgG [%]	% inhibition of cAMP accumulation at 1 µM PTHrP(1-34), 267 nM IgG [%]	Binder
67	72	B1
79	79	B2
0	17	B3
72	75	B4

Target: T3, mouse PTH1R overexpressed on CHO cells
Experiment: cell-based or functional assay

IC50, inhibition of PTHrP(1-34)-induced cAMP accumulation [nM]	Binder
3.2	B1
2.53	B5
2.9	B6
3.57	B4

Target: T4, human PTH1R overexpressed on CHO cells
Experiment: cell-based or functional assay

IC50, inhibition of PTH(1-34)-induced cAMP accumulation [nM]	IC50, inhibition of PTHrP(1-34)-induced cAMP accumulation [nM]	IC50, inhibition of PTH(1-34)-induced cAMP accumulation (curve does not reach a plateau) [nM]	Binder
14.2	8.86		B1
14.2	12.1		B5
	14.6	29.9	B4

Target: T2, human PTH1R on Saos-2 cells (endogenous)
Experiment: cell-based or functional assay
Remark: another data set of the same source

fold shift of the PTH (1-34) dose response, M-CSF secretion by Saos-2 cells [fold]	Binder
> 10	B1
> 10	B2
> 10	B7
> 10	B4

Target: T5, recombinant N-terminal extracellular …
Experiment: SPR, IgG captured, ECD injected
Protocol: An anti-human IgG-Fc CMS sensor chip (GE Healthcare) was prepared using standard amine coupling as described by the manufacturer's protocol for the capture Ab on a BIACORE 4000 system (GE Healthcare). Briefly, the chip surface was activated with a 10 minute injection at 10 μL/minute of a freshly mixed 1:1 solution of 0.1 M N-Hydroxysuccinimide (NHS) and 0.4 M 1-Ethyl-3-(3-dimethylaminopropyl) carbodiimide hydrochloride (EDC). Following the activation injection, 15 ug/mL anti-human IgG-Fc antibody in acetate pH 4.5 was injected at 10 μL/minute for 10 minutes to achieve a high density capture surface. 7 minutes of 1M Ethanolamine hydrochloride-NaOH pH 8.5 was injected to block the surface. The NHS, EDC, and Ethanolamine used were from the BIACORE Amine Coupling Kit.
Kinetic Analysis was performed using HBS-EP+(Teknova) with 2.5 mg/mL BSA (Sigma Aldrich, St. Louis Mo.). Antibodies were diluted to 0.5 μg/mL and captured to achieve a surface density of 100 to 200 RU. […] Injections were performed at 30 μL/minute for 240 seconds with a 360 second dissociation time. Regeneration was then performed with one 60 second injection 3M MgCl.
The data were analyzed using BIACORE 4000 Evaluation Software and was double referenced by subtracting both the blank flow cell data and the averaged bracketing blank injections. The data was fit by simultaneously fitting the an off-rate (kd) and on-rate (kₐ), and calculating the KD as KD=kd/kₐ.

Kd [nM]	koff [s⁻¹]	kon [M⁻¹ s⁻¹]	Binder
0.19	7.3e-05	380000	B8
0.22	0.00035	1.6e+06	B1
0.56	0.0013	2.3e+06	B5
0.87	0.00077	880000	B6
0.18	0.00014	780000	B2
0.52	0.0012	2.3e+06	B3
0.15	0.00011	740000	B7
0.31	0.00014	450000	B4
